Results as given in publication PMC5016687, “The Effectors and Sensory Sites of Formaldehyde-responsive Regulator FrmR and Metal-sensing Variant” (The Journal of Biological Chemistry, 2016).

Tests used:
RcnR [1] = biological target: RcnR (Salmonella enterica, UniProt Q7CPV3); experiment: biochemical
FrmR [2] = biological target: T1, FrmR (Salmonella enterica, UniProt A0A0H3NLH8, P2S); experiment: biochemical
T1 construct: gene SL1344_1558

FrmR [3] = biological target: T2, FrmR (Salmonella enterica, UniProt A0A0H3NLH8, C35A); experiment: biochemical
T2 construct: gene SL1344_1558

FrmR [4] = biological target: T3, FrmR (Salmonella enterica, UniProt A0A0H3NLH8); experiment: biochemical
T3 construct: gene SL1344_1558

[5] = biological target: FrmR^E64H (Salmonella enterica serovar Typhimurium FrmR with Glu64 to His) (Salmonella enterica serovar Typhimurium strain SL1344); experiment: crystal structure; FrmR E64H 0.5 mM in 400 mM NaCl, 1 mM EDTA, 1 mM DTT, 10 mM HEPES pH 7.0; crystals in 20 mM NaCl, 23% (w/v) PEG 4000, 10 mM BisTris pH 6.5, hanging drop vapor diffusion at 20 °C; one homotetramer in the asymmetric unit; 2.19 Å
RcnRS2P = RcnRS2P (Salmonella enterica serovar Typhimurium …, UniProt Q7CPV3 1-90, S2P); experiment: fluorescence anisotropy; 5 mM EDTA, apo; 10 mM HEPES pH 7.0, 60 mM NaCl, 240 mM KCl, 5 mM EDTA (or 5 uM NiCl2/CoCl2), 25 C, 10 nM DNA; anaerobic except FrmRC35A; Kd per tetramer (two nondissociable tet); conditions: protein: recombinant; chain copies: 8; label: 5'-HEX on strand 1; blunt
RcnR [6] = biological target: T4, RcnR (Salmonella enterica serovar Typhimurium …, UniProt Q7CPV3 1-90); experiment: as above; conditions: protein: recombinant; chain copies: 8; label: 5'-HEX on strand 1; blunt
T4 sequence: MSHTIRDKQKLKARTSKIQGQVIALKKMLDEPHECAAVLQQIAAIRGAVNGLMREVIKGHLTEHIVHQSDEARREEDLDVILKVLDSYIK

FrmRE64H = FrmRE64H (Salmonella enterica serovar Typhimurium …, UniProt A0A0H3NLH8 2-91, E64H); experiment: as above; conditions: protein: recombinant; chain copies: 8
FrmRP2S = FrmRP2S (Salmonella enterica serovar Typhimurium …, UniProt A0A0H3NLH8 1-91, P2S); experiment: as above; conditions: protein: recombinant; chain copies: 8
FrmR [7] = biological target: FrmR (Salmonella enterica serovar Typhimurium …, UniProt A0A0H3NLH8 2-91); experiment: fluorescence anisotropy; 800 uM GSH, 5 mM EDTA; 10 mM HEPES pH 7.0, 60 mM NaCl, 240 mM KCl, 5 mM EDTA (or 5 uM NiCl2/CoCl2), 25 C, 10 nM DNA; anaerobic except FrmRC35A; Kd per tetramer (two nondissociable tet); conditions: protein: recombinant; chain copies: 8

Molecule: C=O [formaldehyde]
- Kd (RcnR [1]): > 100 µM
- Kd (FrmR [2]): > 50 µM
- Kd (FrmR [3]): > 100 µM
- Kd (FrmR [4]): 10 to 20 µM

Molecule: FrmR^E64H (Salmonella enterica serovar Typhimurium FrmR with Glu64 to His) (natural protein)
- stoichiometry N [5]: 4

B1: rcnRAPro (dsDNA)
DNA 1: TACTCCCCCCCAGTATAGAATACTACCCCCCAGTA
DNA 2: TACTGGGGGGTAGTATTCTATACTGGGGGGGAGTA
- Kd (RcnRS2P): 160 nM
- Kd (RcnR [6]): 150 nM

B2: frmRAPro (dsDNA)
DNA 1: TTCTGATAGTATACCCCCCTATAGTATATGGAG
DNA 2: CTCCATATACTATAGGGGGGTATACTATCAGAA
- binding result (FrmRE64H): binds
- Kd (FrmRP2S): 150 nM
- binding signal (FrmR [7]): ~2.5 fold tighter Kd vs apo
